According to the supplement of paper PMC11136658:

System: peptide library, one residue held at a place counted from the Y acceptor
Assay: relative phosphorylation of the sub-library (ratio to the mean residue at this position); higher = residue favoured
In short: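 Each value expresses phosphorylation relative to the mean randomized residue. Purified recombinant kinases acted for 90 min in 384-well plates on biotinylated Tyr-centred peptide library mixtures, with one residue fixed at one position from −5 to +5, in the presence of 50 μM ATP with γ-32P-ATP. Signals were read by phosphorimaging after capture on streptavidin membranes, then normalized per position to the sum of the 18 randomized residues (16 in the Ser/Thr-free library) and multiplied by that number.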

NEK10, construct: aa266-895, human, sequence (Q6ZWH5 266-895, looked up): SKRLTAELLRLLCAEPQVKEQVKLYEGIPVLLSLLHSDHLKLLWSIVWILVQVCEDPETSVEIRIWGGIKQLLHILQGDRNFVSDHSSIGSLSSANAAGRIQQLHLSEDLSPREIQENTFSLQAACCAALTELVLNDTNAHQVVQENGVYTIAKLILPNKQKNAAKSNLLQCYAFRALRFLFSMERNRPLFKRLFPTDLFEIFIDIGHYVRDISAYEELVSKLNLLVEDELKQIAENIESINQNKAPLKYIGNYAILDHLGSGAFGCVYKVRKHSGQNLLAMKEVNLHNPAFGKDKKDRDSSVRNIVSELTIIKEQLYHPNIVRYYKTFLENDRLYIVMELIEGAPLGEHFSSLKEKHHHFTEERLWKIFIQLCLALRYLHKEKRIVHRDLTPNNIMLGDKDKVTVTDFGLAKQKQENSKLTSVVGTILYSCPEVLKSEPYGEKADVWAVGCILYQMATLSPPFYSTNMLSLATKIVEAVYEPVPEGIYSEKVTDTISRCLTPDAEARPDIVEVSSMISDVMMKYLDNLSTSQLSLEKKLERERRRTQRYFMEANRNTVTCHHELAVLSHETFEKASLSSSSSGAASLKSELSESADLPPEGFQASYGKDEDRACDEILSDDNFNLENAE
NTRK2, construct: aa455-end, human, sequence (Q16620 455-822, looked up): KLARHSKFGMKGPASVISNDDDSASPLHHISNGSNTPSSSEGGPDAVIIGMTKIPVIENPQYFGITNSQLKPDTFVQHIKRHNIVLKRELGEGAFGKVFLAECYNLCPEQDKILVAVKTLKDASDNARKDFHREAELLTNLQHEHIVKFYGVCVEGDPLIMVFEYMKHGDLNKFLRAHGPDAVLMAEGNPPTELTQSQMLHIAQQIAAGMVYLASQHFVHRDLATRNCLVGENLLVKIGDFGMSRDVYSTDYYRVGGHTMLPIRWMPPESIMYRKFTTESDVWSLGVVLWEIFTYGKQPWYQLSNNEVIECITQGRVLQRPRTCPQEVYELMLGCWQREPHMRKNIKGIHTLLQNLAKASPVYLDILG
PKMYT1, construct: Full length, human, sequence (Q99640 whole entry, looked up): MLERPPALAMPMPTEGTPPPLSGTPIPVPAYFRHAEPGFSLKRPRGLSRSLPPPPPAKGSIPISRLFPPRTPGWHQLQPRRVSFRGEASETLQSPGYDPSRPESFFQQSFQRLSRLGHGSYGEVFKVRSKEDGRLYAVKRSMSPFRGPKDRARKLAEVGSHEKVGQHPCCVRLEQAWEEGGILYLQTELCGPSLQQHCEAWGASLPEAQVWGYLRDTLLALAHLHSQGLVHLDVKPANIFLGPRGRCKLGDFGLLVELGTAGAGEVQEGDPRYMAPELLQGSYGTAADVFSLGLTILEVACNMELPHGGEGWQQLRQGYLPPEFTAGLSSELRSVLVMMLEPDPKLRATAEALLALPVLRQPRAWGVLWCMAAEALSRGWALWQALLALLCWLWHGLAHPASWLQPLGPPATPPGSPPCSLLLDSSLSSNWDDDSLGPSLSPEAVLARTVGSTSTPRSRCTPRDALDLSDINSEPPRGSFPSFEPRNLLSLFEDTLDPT
PDHK3, construct: Full length, human, sequence (Q15120 whole entry, looked up): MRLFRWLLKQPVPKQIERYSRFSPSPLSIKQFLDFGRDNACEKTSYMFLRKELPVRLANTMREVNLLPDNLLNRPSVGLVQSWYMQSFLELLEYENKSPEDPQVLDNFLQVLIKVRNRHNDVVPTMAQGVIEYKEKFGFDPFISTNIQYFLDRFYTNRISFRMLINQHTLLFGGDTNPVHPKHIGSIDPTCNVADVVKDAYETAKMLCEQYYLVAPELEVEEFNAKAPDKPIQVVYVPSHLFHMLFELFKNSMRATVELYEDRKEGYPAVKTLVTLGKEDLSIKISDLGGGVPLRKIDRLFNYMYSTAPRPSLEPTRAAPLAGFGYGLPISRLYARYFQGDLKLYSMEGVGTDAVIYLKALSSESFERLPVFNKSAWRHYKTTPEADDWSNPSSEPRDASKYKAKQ

NEK10, construct: aa266-895, human (from UniProt Q6ZWH5)
relative phosphorylation
Settings	at +1	at +2	at +3	at +4	at +5	at -1	at -2	at -3	at -4	at -5
A fixed	0.35	0.54	0.755	0.959	0.812	0.916	0.855	1.05	1.13	1.08
D fixed	0.229	0.823	0.78	0.87	0.766	0.564	0.825	0.727	0.992	0.965
E fixed	0.173	0.582	0.836	0.71	0.776	0.798	0.772	0.745	0.897	0.981
F fixed	2.39	0.883	1.07	1.05	1.09	1.19	1.25	0.991	0.956	0.969
G fixed	0.353	1.31	1.12	1.1	1.08	1.01	1.12	0.981	1.16	1.17
H fixed	3.09	1.41	1.18	1.06	1.05	1.28	1.12	1.16	1.14	1.15
I fixed	0.888	0.45	0.571	0.794	0.692	0.801	0.637	0.801	0.805	0.869
K fixed	0.373	1.05	1.13	1.21	1.41	0.876	1.13	1.21	1.27	1.2
L fixed	1.8	0.577	0.754	0.944	0.887	1.21	1.06	1.09	0.852	0.826
M fixed	0.954	0.783	1.12	1	0.918	1.13	0.989	0.982	1.01	0.867
N fixed	0.565	1.55	1.24	1.02	1.07	0.796	1.4	1.02	0.84	0.987
P fixed	0.387	1.63	1.29	1.13	1.05	0.715	1.02	0.946	1.14	1.07
Q fixed	0.461	1.65	1.28	0.915	1.06	0.916	0.998	1.07	0.974	0.931
R fixed	0.451	1.25	1.34	1.29	1.49	1.05	1.19	1.55	1.19	1.31
V fixed	0.455	0.473	0.584	0.771	0.703	0.708	0.607	0.695	0.673	0.735
W fixed	3.08	1.04	0.934	1.17	1.15	2.04	1.03	0.981	0.971	0.901
pThr fixed	0.242	0.585	0.599	0.764	0.714	0.515	0.453	0.608	0.64	0.774
pTyr fixed	0.248	0.44	0.693	0.723	0.72	1.03	0.783	0.764	0.734	0.812

NTRK2, construct: aa455-end, human (from UniProt Q16620)
relative phosphorylation
Settings	at +1	at +2	at +3	at +4	at +5	at -1	at -2	at -3	at -4	at -5
A fixed	1.42	0.697	0.136	0.894	0.979	0.684	0.962	0.876	0.971	0.87
D fixed	0.407	0.696	0.42	0.788	1.01	2.06	1.2	1.25	1.11	1.21
E fixed	0.546	0.786	0.308	0.894	0.831	0.84	1.28	1.36	1.33	1.1
F fixed	1.81	1.35	1.88	1.09	1.16	1.12	0.959	1.15	1.32	1.06
G fixed	0.747	0.491	0.569	1.18	1.05	0.45	1.02	0.864	0.996	0.954
H fixed	1.23	0.808	0.871	1.11	1.01	1.36	1.13	1.19	1.05	1.09
I fixed	1.58	1.27	2.41	0.847	0.742	1.31	0.745	0.661	0.825	0.894
K fixed	0.257	0.893	0.387	0.97	0.979	0.259	0.841	0.732	0.752	1.05
L fixed	1.05	1.1	2.12	0.898	0.989	1.38	1.03	0.878	0.921	0.923
M fixed	1.61	1.17	1.63	1.02	0.922	0.958	0.809	0.982	0.82	0.979
N fixed	0.37	0.919	0.467	0.774	0.928	2.13	1.22	1.26	0.921	1.13
P fixed	0.261	0.723	0.785	1.06	1.23	0.772	0.886	0.789	1.1	0.884
Q fixed	0.811	0.927	0.546	0.993	0.912	0.907	1.08	0.964	1.12	1.09
R fixed	0.266	1.16	0.65	0.997	1.03	0.258	0.877	0.785	0.84	1.06
S fixed	0.824	0.914	0.728	0.965	1.06	0.713	1.15	1.11	0.774	0.872
T fixed	0.776	0.897	0.702	0.838	0.914	0.805	0.888	0.93	0.635	0.776
V fixed	2.18	1.24	1.69	0.911	0.83	1.17	0.802	0.769	0.81	0.806
W fixed	1.85	1.95	1.72	1.76	1.42	0.822	1.11	1.46	1.71	1.25
pThr fixed	1.17	0.567	0.302	0.689	0.807	0.824	0.828	0.83	0.932	0.913
pTyr fixed	1.77	1.3	0.567	1.03	0.776	3.47	1.13	1.22	1.26	0.986

PDHK3, construct: Full length, human (from UniProt Q15120)
relative phosphorylation
Settings	at +1	at +2	at +3	at +4	at +5	at -1	at -2	at -3	at -4	at -5
A fixed	0.864	0.935	0.907	1.15	0.809	0.955	1.04	0.965	1.15	1.1
D fixed	1.32	1.44	1.3	1.46	1.44	1.19	1.1	1.17	1.1	1.09
E fixed	1.1	1.02	1.32	1.46	1.23	0.907	1.02	0.781	0.943	0.994
F fixed	0.733	0.957	0.902	0.883	0.884	0.734	0.863	0.82	0.811	0.999
G fixed	1.14	0.947	1.11	1.06	1.09	1.03	1.07	1.24	1.33	1.12
H fixed	0.976	1.03	0.971	1.07	0.992	0.908	0.901	0.76	0.958	1.06
I fixed	0.74	0.721	0.875	0.87	0.766	0.781	0.793	0.67	0.826	0.874
K fixed	1.02	0.994	0.862	0.886	0.842	1.22	1.15	1.17	1	1.09
L fixed	0.876	0.878	0.869	1.03	0.886	0.906	1.12	1	0.9	0.95
M fixed	0.895	0.784	1.03	0.855	0.873	0.765	0.875	0.745	0.843	0.779
N fixed	1.18	1.01	0.955	0.877	0.944	1.04	0.912	0.933	0.986	0.897
P fixed	1.15	1.14	0.994	1.09	1.01	1.26	1.39	1.71	1.09	1.08
Q fixed	1.1	0.957	0.916	0.855	0.986	1.08	0.825	1.04	0.995	0.978
R fixed	1.09	0.889	0.906	0.714	0.926	1.09	1.02	1.01	1.18	0.997
V fixed	0.722	0.908	0.836	0.781	0.778	0.898	0.911	0.885	0.827	0.844
W fixed	1.1	1.39	1.26	0.97	1.54	1.24	1.03	1.09	1.07	1.15
pThr fixed	1.23	1.1	1.23	1.5	1.23	1.05	0.926	1.01	0.884	0.839
pTyr fixed	1.22	1.04	1.01	1.05	1.42	0.948	0.814	0.789	0.694	0.754

PKMYT1, construct: Full length, human (from UniProt Q99640)
relative phosphorylation
Settings	at +1	at +2	at +3	at +4	at +5	at -1	at -2	at -3	at -4	at -5
A fixed	0.864	0.982	0.813	1.11	0.947	1.04	1.05	1.2	1.2	1.16
D fixed	0.69	0.754	0.728	0.889	0.933	0.756	0.814	0.784	0.792	0.741
E fixed	0.834	0.775	0.66	0.833	0.979	0.845	0.915	0.837	0.84	0.772
F fixed	0.794	1.12	1.55	1.01	1.03	0.72	1.01	1.09	1.06	1.18
G fixed	1.64	1.08	1.01	1.18	1.03	2.03	1.4	1.14	1.27	0.902
H fixed	0.813	0.945	0.911	1.11	1.13	0.945	1.14	1.06	1.01	1.15
I fixed	1.29	1.03	1.24	1.1	1	0.863	1.09	0.996	0.901	1.02
K fixed	1	1.32	0.831	1.09	1	1.02	0.978	0.943	1.03	1.2
L fixed	0.691	0.935	0.973	0.928	0.912	0.705	0.791	0.867	0.758	0.886
M fixed	0.837	0.935	0.988	0.966	0.936	0.751	0.897	0.883	0.875	0.908
N fixed	0.774	0.873	0.728	0.785	0.905	0.834	0.982	0.93	0.87	0.885
P fixed	1.35	1.14	1.09	0.925	1.02	1.45	1	1.11	1.14	0.842
Q fixed	0.865	0.821	0.667	0.787	0.853	0.828	0.777	0.867	0.928	0.855
R fixed	1.18	1.25	0.938	1.12	1.29	1.18	1.08	1.23	1.26	1.31
V fixed	1.39	1.07	0.967	0.998	0.918	1.01	1.09	1.04	0.936	0.928
W fixed	0.992	0.962	1.92	1.16	1.12	1.02	0.995	1.02	1.15	1.26
pThr fixed	0.868	0.729	0.691	0.838	0.635	1.04	0.974	0.888	0.912	0.719
pTyr fixed	0.831	0.87	0.7	0.883	0.789	1.83	0.974	1.05	0.841	0.849
